Consider seven molecules from article PMC3737412, “Species-Specific and Cross-Reactive IgG1 Antibody Binding to Viral Capsid Protein 1 (VP1) Antigens of Human Rhinovirus Species A, B and C” (PLoS ONE, 2013).

Common to all, as to assay: SEC
(Size exclusion chromatography separates by hydrodynamic size, large species first.)

Data set [1] has as its target Recombinant GST-fusion HRV-A34 VP1 with a C-terminal histidine tag (human rhinovirus A34 (HRV-A species)).
The target in data set [2] is Recombinant GST-fusion HRV-C5 VP1 with a C-terminal histidine tag (human rhinovirus C5 (HRV-C species)).
The target in data set [3] is Recombinant GST-fusion HRV-C3 VP1 with a C-terminal histidine tag (human rhinovirus C3 (HRV-C species)).
For data set [4], the target named is Recombinant GST-fusion HRV-B69 VP1 with a C-terminal histidine tag (human rhinovirus B69 (HRV-B species)).
Data set [5] has as its target Recombinant GST-fusion human poliovirus (HPV) Sabin VP1 with a C-terminal histidine tag (human poliovirus Sabin).
The data set “SEC” concerns the molecule itself.

Take “Recombinant GST-fusion HRV-A34 VP1 with a C-terminal histidine tag (natural protein)”: the stoichiometry N in data set [1] turned out to be 10.
As for “Recombinant GST-fusion HRV-C5 VP1 with a C-terminal histidine tag (natural protein)”, in data set [2], the stoichiometry N came to 10.
For the molecule “Recombinant GST-fusion HRV-C3 VP1 with a C-terminal histidine tag (natural protein)”, the stoichiometry N in data set [3] was determined as 10.
Take “Recombinant GST-fusion HRV-B69 VP1 with a C-terminal histidine tag (natural protein)”: in data set [4], the stoichiometry N is 10.
As to “Recombinant GST-fusion human poliovirus (HPV) Sabin VP1 with a C-terminal histidine tag (natural protein)”, the stoichiometry N in data set [5] was 10.

B1: Recombinant GST-fusion HRV-B14 VP1 with a C-terminal histidine tag (natural protein)
chain: TVALTEGLGDELEEVIVEKTKQTVASISSGPKHTQKVPILTANETGATMPVLPSDSIETRTTYMHFNGSETDVECFLGRAACVHVTEIQNKDATGIDNHREAKLFNDWKINLSSLVQLRKKLELFTYVRFDSEYTILATASQPDSANYSSNLVVQAMYVPPGAPNPKEWDDYTWQSASNPSVFFKVGDTSRFSVPYVGLASAYNCFYDGYSHDDAETQYGITVLNHMGSMAFRIVNEHDEHKTLVKIRVYHRAKHVEAWIPRAPRALPYTSIGRTNYPKNTEPVIKKRKGDIKSY
Consider B1, for which the “stoichiometry N” value in “SEC” was roughly 10.

B2: Recombinant GST-fusion HRV-A1B VP1 with a C-terminal histidine tag (natural protein)
chain: SGPIEQNPVENYIDEVLNEVLVVPNIKESHHTTSNSAPLLDAAETGHTSNVQPEDAIETRYVMTSQTRDEMSIESFLGRSGCVHISRIKVDYNDYNGVNKNFTTWKITLQEMAQIRRKFELFTYVRFDSEVTLVPCIAGRGDDIGHVVMQYMYVPPGAPIPKTRNDFSWQSGTNMSIFWQHGQPFPRFSLPFLSIASAYYMFYDGYDGDNSSSKYGSIVTNDMGTICSRIVTEKQEHPVVITTHIYHKAKHTKAWCPRPPRAVPYTHSRVTNYVPKTGDVTTAIVPRASMKTV
B2: the “stoichiometry N” value in “SEC” is roughly 10.

By stoichiometry N is commonly meant the number of molecules, sites or subunits per partner or assembly.
